The text below walks through data of paper PMC11352979, “The mycobacterium lipid transporter MmpL3 is dimeric in detergent solution, SMALPs and reconstituted nanodiscs†” (RSC Chemical Biology, 2024).

This series deals with the molecule itself. Put plainly: SEC + native gel or EMSA.

B1: C-terminally truncated Mycobacterium tuberculosis MmpL3 (ΔC Mtb-MmpL3, aa 1–753) (domain or fragment)
chain: MFAWWGRTVYRYRFIVIGVMVALCLGGGVFGLSLGKHVTQSGFYDDGSQSVQASVLGDQVYGRDRSGHIVAIFQAPAGKTVDDPAWSKKVVDELNRFQQDHPDQVLGWAGYLRASQATGMATADKKYTFVSIPLKGDDDDTILNNYKAIAPDLQRLDGGTVKLAGLQPVAEALTGTIATDQRRMEVLALPLVAVVLFFVFGGVIAAGLPVMVGGLCIAGALGIMRFLAIFGPVHYFAQPVVSLIGLGIAIDYGLFIVSRFREEIAEGYDTETAVRRTVITAGRTVTFSAVLIVASAIGLLLFPQGFLKSLTYATIASVMLSAILSITVLPACLGILGKHVDALGVRTLFRVPFLANWKISAAYLNWLADRLQRTKTREEVEAGFWGKLVNRVMKRPVLFAAPIVIIMILLIIPVGKLSLGGISEKYLPPTNSVRQAQEEFDKLFPGYRTNPLTLVIQTSNHQPVTDAQIADIRSKAMAIGGFIEPDNDPANMWQERAYAVGASKDPSVRVLQNGLINPADASKKLTELRAITPPKGITVLVGGTPALELDSIHGLFAKMPLMVVILLTTTIVLMFLAFGSVVLPIKATLMSALTLGSTMGILTWIFVDGHFSKWLNFTPTPLTAPVIGLIIALVFGLSTDYEVFLVSRMVEARERGMSTQEAIRIGTAATGRIITAAALIVAVVAGAFVFSDLVMMKYLAFGLMAALLLDATVVRMFLVPSVMKLLGDDCWWAPRWARRLQTRIGLGEIHLPD
notes: also called Mtb-MmpL3 ΔC; Mtb MmpL3 ΔC
Consider B1, for which the binding result is “binds”.
